Assays:
[1] = substrate: N=C(N)NCCC[C@H](N)C(=O)O; assay: L-amino acid oxidase (LAAO) enzyme-coupled assay of purified escapin; type: biochemical, Aplysia californica; conditions: other: horseradish peroxidase/o-dianisidine coupled assay, 0.1 M Tris-HCl pH 7.6, room temperature, O.D. 436 nm, Lineweaver-Burk plot
Text: (§1) Animals. Sea hares, Aplysia californica, were collected in California or provided by the NIH National Resource for Aplysia Facility (http://www.rsmas.miami.edu/groups/sea-hares/). They were maintained in aquaria containing recirculating, filtered, and aerated artificial sea water (Instant Ocean™: Aquarium Systems), and fed red alga (Gracilaria ferox). Ink gland processing. The ink glands were surgically removed from sea hares, gently squeezed in a Petri dish with the blunt end of a scalpel handle to release most of the ink secretion from the individual vesicles contained in the gland. The secretion was then pipetted to a microfuge tube and frozen at −80° C. until needed. Opaline gland processing. The opaline glands were surgically removed from sea hares, gently blotted dry on a Kimwipe® to remove seawater (since water causes opaline secretion to polymerize) and transferred to an ultracentrifuge tube. This was centrifuged at 30,000 g for 30 min at 4° C. (Beckman Optima TLX Ultracentrifuge). The pure opaline was then pipetted away from the gland tissue, transferred to a microfuge tube, and frozen at −80° C. until needed. Purification of proteins from purple ink. Proteins were isolated and purified using an ÄKTA 100 Automated FPLC (Amersham Pharmacia Biotech). A preparative grade Hi-Load Superdex 200 16/60 column (Pharmacia) or an in-house-packed Sephacryl 300 HR 26/60 column was used for initial size separation with fractions collected in an automated fraction collector. Fractions identified to have activity by bacterial assay were concentrated using a Biomax 5K NMWL membrane Ultrafree Centrifugal Filter Device (Millipore). Active fractions were further purified on a cation exchange Mono S column, and fractions were collected, assayed, concentrated, and frozen at −80° C. One purified protein of interest was named “escapin” and was bright yellow. Escapin's concentration was determined by Bradford assay using bovine serum albumen (BSA) as a standard. The molecular mass of purified escapin was determined by gel filtration using a Superose-6 10/30 column (Amersham Pharmacia Biotech) eluted with 50 mM potassium phosphate buffer (pH 7.2) containing 150 mM KCl at a flow rate of 0.5 ml/min. The molecular weight markers were BSA (67 kDa), ovalbumen (43 kDa), and chymotrypsinogen A (25 kDa). Protein sequencing. Aplysia californica ink was analyzed for protein content using sodium dodecyl sulfate polyacrylamide gel electrophoresis (SDS-PAGE) on 12% gels. […] This band was blotted from the polyacrylamide gel to a PVDF membrane using CAPS transfer buffer and determined by protein microsequencing and proteomic mass spectrometry (University of Massachusetts Medical School Proteomic Mass Spectrometry Lab: http://www.umassmed.edu/proteomic/leszyk). […]

[2] = substrate: NCCCC[C@H](N)C(=O)O; assay: as above; type: biochemical, Aplysia californica; conditions: other: horseradish peroxidase/o-dianisidine coupled assay, 0.1 M Tris-HCl pH 7.6, room temperature, O.D. 436 nm, Lineweaver-Burk plot
Text: as §1

B1: Aplysia californica escapin (L-amino acid oxidase), wild type purified from ink, SEQ ID NO:1 (Aplysia californica) (protein)
chain: DGVCRNRRQCNKEVCGSSYDVAIVGAGPGGANSAYMLRESGLDIAVFEYSDRVGGRLFTYQLPNTPDVNLEIGGMRFIEGAMHRLWKVISELGLTPKVFKEGFGKEGRQRFYLRGQSLTKKQVKSGDVPYDLSPEEKANQGRLVEYYLEKLTGLQLNGGPLKREVALKLTVPDGRFLYDLTFDEALDLVASPEGKEFARDTHVFTSEVTLDASAISIFDDHLGEDYYGSEIYTLEEGMSSVPQGLLQTFLDAAKSNEFFPNNHLKALRRRTNGQYVLYFEPTTSKDGQTTINYLEPLKVVCAQRVILAMPVYALRQLDWSQLRNDRATQAYRAVRPMPASKVFMTFDQPWWLQNERKSWVTKSDALFSQMYDWQKSEASGDYILIASYADGLKAQYLRELKNQGEDIPGSDPGYNQVTVPLKDAILEHLTEAYGVERDSIPEPVTAASQFWTDYPFGCGWITWRAGYHFDDVISTMRRPSLKDEVYVVGSDYSWGLISSWIEGALETSENVINDYFL
notes: a signal peptide cleavage site between 18 and 19 amino acid residues was predicted by SignalIP; from tissue; host or cells: ink (ink gland secretion) of Aplysia californica
[1]
  Km: 25 µM
  Vmax: 1.56 µM/s
[2]
  Km: 31 µM
  Vmax: 1.92 µM/s

From patent publication US7329517B2, “Escapin protein, a broadly antimicrobial compound from ink of the sea hare Aplysia californica, and uses thereof” (priority 2004, dated 2008)
